Data published in patent US9701733B2, “Maspin-based treatment of cancer” (Northwestern University, priority 2011, dated 2017).
Where a chain is given by its changes, count along the chain named. Numbers in names are those of the source. Entries after “also recorded” stand apart in the source; their conditions may differ.

What was measured:
HUVEC endothelial cells = assay: HUVEC tube formation assay on MatriGel; format: cell-based; conditions: for effect on HUVEC tube formation: 1.0 uM; for potency on tube angiogenesis: compared to the G-Helix peptide or GST-maspin (FIG. 7)
Description: HUVECs were plated on MatriGel for tube formation assay. Various peptides were tested for the potency on tube angiogenesis.
HUVEC endothelial cells were used to test the effect of synthetic maspin peptides on HUVEC tube formation assay in cell culture systems. Random peptide was used as a negative control and maspin G-helix peptide as a positive control. G-Helix was previously found to be effective in inhibiting endothelial cell migration, thereby mimicking maspin effect against angiogenesis. […] At 1.0 uM, G-helix was not effective.

MCF10A cells = assay: Adhesion assay of MCF10A cells on self-deposited (endogenous) matrix; format: cell-based, human; conditions: for effect of maspin-derived competitive peptide on MCF10A cell adhesion: cells pre-incubated with peptide, adhesion measured after 30 min, self-deposited matrix; for effect of GST-maspin mutant on MCF10A cell adhesion: compared to wild-type GST-maspin; for effect of GST-maspin mutant on MCF10A cell adhesion / reduction of MCF10A cell adhesion compared to WT GST-maspin: endogenous matrix; for reduction of MCF10A cell adhesion compared to WT GST-maspin: recombinant protein
Description: Assays utilizing endogenous ECM proteins generated by MCF10A cells were performed as previously described (Langhofer et al. (1993) J Cell Sci 105 (Pt 3), 753-764; herein incorporated by reference in its entirety). MCF10A cells were plated in 96-well dishes and allowed to reach confluence. Cells were washed with PBS and treated for 5 min with fresh sterile 20 mM NH4OH, followed by extensive water washes. Wells were blocked with heat-denatured BSA (10 mg/ml) for 1 hr at room temperature. Subconfluent cultures were trypsinized, washed with 37° C. serum-free DMEM/F12 medium, and incubated with either antibodies or recombinant proteins (500 nM) for 30 min at 37° C. (when assaying endogenous maspin enzyme-free cell dissociation solution was used instead of trypsin). In all assays, 2.0×10^4 cells were plated in triplicates and allowed to adhere for 30 min at 37° C. The GST protein was used as a control. Wells were washed with 37° C. serum-free DMEM/F12 and adhered cells were fixed with 5% gluteraldehyde and stained with crystal violet dye. Cell adhesion was determined by the reading at 590 nm subtracted by the blank value (determined by BSA-coated wells, 5% of maximal cell adhesion). Cell adhesion was plotted as percentage of the corresponding control value. Cell surface stripping of uPA from uPAR was conducted as previously described (Stoppelli et al. (1986) Cell 45, 675-684; herein incorporated by reference in its entirety). Subconfluent cultures were washed twice with DMEM/F12 supplemented with 20 mM HEPES and 1 mg/ml BSA. Then, cells were incubated with 50 mM glycine-HCl (pH 3.0) with 100 mM NaCl at 25° C. for 2 min and the reaction was halted by neutralizing with 500 mM HEPES (pH 7.4). In the function blocking studies, cells were first incubated with the function blocking antiuPAR or control rabbit IgG for 10 min, uPA and recombinant GST-maspin was added for another 20 min.

WT MEF cell surface = assay: 125I-GST-maspin binding to wild type MEF cell surface; set-up: species or system mouse; conditions: WT MEFs; 4° C., 90 min; <500 nM
Description: (§1) Bacterial recombinant GST-maspin was labeled with ^125I as described previously (Conlon, M. (2002) Preparation of ^125I-Labeled Peptides and Proteins with High Specific Activity using IODO-GEN, 2nd Edition Ed. The Protein Protocols Handbook (Walker, J. M., Ed.), Humana Press Inc, Totowa, N.J.; herein incorporated by reference in its entirety). Wild type (WT) and uPAR−/− mouse embryo fibroblasts (MEFs) (5.0×10^4 cells) were cultured in DMEM with 10% FBS on 96-well plate overnight. Cells were chilled on ice for 30 min, washed three times with ice-cold DMEM, and then blocked on ice for 60 min using blocking buffer (DMEM containing 5% heat inactivated BSA). MEFs were incubated with increasing concentrations of ^125I-GST-maspin in blocking buffer at 4° C. for 90 min. After incubation, unbound ^125I-GST-maspin protein was removed by washing three times with blocking buffer. Specific ^125I-GST-maspin binding was determined by subtracting the detected radioactivity by the nonspecific binding (determined in the presence of a 50-fold excess of non-labeled GST-maspin). In the studies evaluating the uPA/uPAR interactions, ^125I-GST-maspin was treated with ABS4A and S-20 (Santa Cruz) antibodies, which block the RCL and N-terminal domains, prior to adding to WT MEF cells. In one set, WT MEF cells were treated with an anti-mouse uPAR antibody (R&D), which blocks uPA binding to uPAR. […]

uPAR-/- MEFs = assay: 125I-GST-maspin binding to uPAR-/- MEF cell surface; set-up: species or system mouse; conditions: 4° C., 90 min, <500 nM
Description: as §1

Molecule: TANAEVKLSIPK (listed as Homo sapiens) [peptide Y, synthetic maspin mimetic peptide]
- effect on HUVEC tube formation (HUVEC endothelial cells): highly effective
- potency on tube angiogenesis (HUVEC endothelial cells): highly potent

Molecule: STANAKVKLSIP (listed as Homo sapiens) [peptide X, synthetic maspin mimetic peptide]
- effect on HUVEC tube formation (HUVEC endothelial cells): highly effective
- potency on tube angiogenesis (HUVEC endothelial cells): highly potent

Molecule: peptide 181-202: competitive peptide corresponding to maspin amino acid residues 181-202 (KECPFRVNKTDTKPVQMMNMEA; UniProt P36952 181-202, looked up, fragment)
- effect of maspin-derived competitive peptide on MCF10A cell adhesion (MCF10A cells): inhibited cell adhesion; also recorded: competed with GST-maspin

Molecule: TDTKPVQMMNMEATFCMGNIDSI (listed as Homo sapiens) [190-211]
- effect of maspin-derived competitive peptide on MCF10A cell adhesion (MCF10A cells): inhibited cell adhesion; also recorded: competed with GST-maspin

Molecule: NPSTMANAKVKLSIPK (listed as Homo sapiens) [peptide 260-275]
- effect of maspin-derived competitive peptide on MCF10A cell adhesion (MCF10A cells): inhibited cell adhesion
- effect of maspin-derived competitive peptide on MCF10A cell adhesion (MCF10A cells; listed as 260-275 peptide): reduced

Molecule: peptide 169-189: peptide corresponding to maspin residues 169-189 (s3C) (GKWMKKFSESETKECPFRVNK; UniProt P36952 169-189, looked up, fragment)
- effect of maspin-derived competitive peptide on MCF10A cell adhesion (MCF10A cells): not s3C (peptide 169-189) was important

B1: single mutant (E201K): GST-maspin point mutant E201K (protein, UniProt P36952 1-375, looked up, variant E201K)
Serpin B5: MDALQLANSAFAVDLFKQLCEKEPLGNVLFSPICLSTSLSLAQVGAKGDTANEIGQVLHFENVKDVPFGFQTVTSDVNKLSSFYSLKLIKRLYVDKSLNLSTEFISSTKRPYAKELETVDFKDKLEETKGQINNSIKDLTDGHFENILADNSVNDQTKILVVNAAYFVGKWMKKFSESETKECPFRVNKTDTKPVQMMNMKATFCMGNIDSINCKIIELPFQNKHLSMFILLPKDVEDESTGLEKIEKQLNSESLSQWTNPSTMANAKVKLSIPKFKVEKMIDPKACLENLGLKHIFSEDTSDFSGMSETKGVALSNVIHKVCLEITEDGGDSIEVPGARILQHKDELNADHPFIYIIRHNKTRNIIFFGKFCSP
modifications: GST tag
- effect of GST-maspin mutant on MCF10A cell adhesion (MCF10A cells): inhibited cell adhesion; also recorded: significantly reduced
- reduction of MCF10A cell adhesion compared to WT GST-maspin (MCF10A cells): 16%

B2: triple mutant (E201K, K268E, K270E): GST-maspin mutant E201K, K268E, K270E (protein, UniProt P36952 1-375, looked up, variant E201K K268E K270E)
Serpin B5: B1 Serpin B5 with K268E, K270E
modifications: GST fusion
- effect of GST-maspin mutant on MCF10A cell adhesion (MCF10A cells): inhibited cell adhesion
- reduction of MCF10A cell adhesion compared to WT GST-maspin (MCF10A cells): approximately 28%

B3: GST-maspin: Glutathione S-transferase (GST)-tagged recombinant wild-type maspin; 125I-labeled for binding assay (protein, UniProt P36952 1-375, looked up)
Serpin B5: B1 Serpin B5 with K201E
modifications: GST tag; 125I label
- specific 125I-GST-maspin binding to cell surface (WT MEF cell surface): displayed specific 125I-GST-maspin binding
- specific 125I-GST-maspin binding to cell surface (uPAR-/- MEFs): absent of any specific 125I-GST-maspin binding
- maspin-induced MCF10A cell adhesion after stripping endogenous uPA (MCF10A cells; endogenous uPA acid-stripped before GST-maspin): substantially blocks
- maspin-mediated adhesion of uPA-stripped MCF10A cells after addition of exogenous uPA (MCF10A cells; uPA acid-stripped, exogenous uPA 800 nM): 154.06 % of GST control

B4: double mutant (K268E, K270E): GST-maspin mutant K268E, K270E (protein, UniProt P36952 1-375, looked up, variant K268E K270E)
Serpin B5: B1 Serpin B5 with K201E, K268E, K270E
modifications: GST fusion
- effect of GST-maspin mutant on MCF10A cell adhesion (MCF10A cells): inhibited cell adhesion
- effect of GST-maspin mutant on MCF10A cell adhesion (MCF10A cells; listed as double mutant GST maspin (K268E, K270E)): reduced
- reduction of MCF10A cell adhesion compared to WT GST-maspin (MCF10A cells): 17%
